Series [1] concerns the molecule itself. Kind of series: SEC peak area ratio after coexpression of full-length heavy chain, light chain and unmodified Fc fragment (SEQ ID NO 62) in Expi293F, Protein A purified.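 Further: SEC chromatograms monitored by UV absorbance at 215 nm, with species quantified as peak area ratios.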
For series [2], the target named is T1, Fc fragment below the hinge region containing no modification (SEQ ID NO: 62) (human, UniProt P01857 104-328 = IgG part).
T1 construct: Unmodified human IgG1 Fc fragment coexpressed with the full-length heavy chain and the light chain; two chains in the Fc homodimer, one chain in the heteromultimer; also called WT-Fc fragment
The series is described as follows: SEC area ratio of heteromultimer (%) after coexpression of full-length heavy chain, light chain and Fc fragment in Expi293F.

B1: Antibody with full-length human IgG1 heavy chain carrying T366Y/L368V/Y407A (SEQ ID NO: 473) and light chain SEQ ID NO: 61 (antibody)
heavy: QVQLQESGPGLVRPSQTLSLTCTVSGYSITSDHAWSWVRQPPGRGLEWIGYISYSGITTYNPSLKSRVTMLRDTSKNQFSLRLSSVTAADTAVYYCARSLARTTAMDYWGQGSLVTVSSASTKGPSVFPLAPSSKSTSGGTAALGCLVKDYFPEPVTVSWNSGALTSGVHTFPAVLQSSGLYSLSSVVTVPSSSLGTQTYICNVNHKPSNTKVDKRVEPKSCDKTHTCPPCPAPELLGGPSVFLFPPKPKDTLMISRTPEVTCVVVDVSHEDPEVKFNWYVDGVEVHNAKTKPREEQYNSTYRVVSVLTVLHQDWLNGKEYKCKVSNKALPAPIEKTISKAKGQPREPQVYTLPPSREEMTKNQVSLYCVVKGFYPSDIAVEWESNGQPENNYKTTPPVLDSDGSFFLASKLTVDKSRWQQGNVFSCSVMHEALHNHYTQKSLSLSP
light: not shown
notes: also called Sample No. 1063
As to B1, the “Homo full-length heavy chain (%)” value in series [1] was 66.5%. Also, in series [2], the binding result is given as “no binding”.

The values are drawn from patent publication US20260217835A1 (published 2026).
